Measured values: the supplement of paper PMC9170038

Each sequence was assayed on MS2 coat protein (assay: apparent KD of MS2 coat protein; higher = weaker reporter binding). Conditions: Eterna round: R107; input ligand: theophylline 2 mM.
In short: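 The designed RNA switches were transcribed on-chip from Illumina sequencing clusters. In 100 mM Tris-HCl pH 7.5, 80 mM KCl and 4 mM MgCl2, without or with constant ligand, they were titrated with SNAP-549-labelled MS2 coat protein from 0.7 or 1.5 nM to 3 µM in twofold steps. Apparent KD is the per-design median of normalised cluster binding-curve fits.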

Row | Sequence | apparent KD of MS2 coat protein [nM]
1 | AUCAUAAUAGCCUCGUGUAAUUAAAUGGAACGAGGACCGGUACGGCCGCCACUCGAUAUAAACAUGAGGAUCACCCAUGUAAGCA [JR_ExcTryptoA_Sub004] | 58.2
2 | GCACCAGGUACGGAUACCAGAGCAAGCCAAAUGAGUGACCAUGAGGAUCACCCAUGGUUGCUCCCUUGGCAGCCGUACCUGGUGC [ETB NP+V+V2 #13 Diff Apt, +-Same Structure] | 79
3 | UGUAUGUGAUCUGAUACCAGUCCAACUGGUAAAACCUGAGGAUCACCCUGGUAAAAUUGGGACCCUUGGCAGCAGAUCGCAUACU | 125
4 | AACGUAUACAGAAGGAGCGUGAUUUAUAAUUCUUUAAAAUAUACAUGAGGAUCACCCAUGUCACAGGUAGGUCGCUGUAUUCGUA [JR_ExcArginiB_Sub024] | 35.2
5 | ACGCUGAUUGAUUACAAUCAGCGAAAAGAUACCAGUGGGUAAUCCCACCCUUGGCAGCUUAAAUAUGAGGAUCACCCAUAUGGUA [TheoAS 18 #MS2Right #BothOrNeither #AlternativeMS2] | 412
6 | CUGGACAUGAGGAUCACCCAUGUAAAUCCUCGAGGACCGGUACGGCCGCCACUCGAACGAGUGGCGCGCGAGUGCGCACUCGCGC [aKa] | 49.3
7 | AAUCAUAGGGCGGCCGCCACUAAACAUGAGGAUCACCCAUGUCUCGAGGGCUUGCGUUUGGGAAGUAGGACCGGGCCAAUAGUAA [Tryp B Ex Mod2] | 17
8 | GUUACCAUGUCGGCCGCCACUAACAAGGUUAUGGCAAGUCUACACGACAUGAGGAUCACCCAUGUUAGGACCGGGACCCAUACCC [theeternabot_exclusion_MS2_Trp_B_44] | 16.2
9 | AGAGCAUUGACGGCCGCCACUCAUGUCACAUGAGGAUCACCCAUGUGAUGGGUAAUCGCCCGGUUGAGGACCGGGUCAAUGCUCA [Omei Tryp SS B v3] | 8.46

Same assay, conditions: Eterna round: R107; input ligand: tryptophan 2.4 mM

Row | Sequence | apparent KD of MS2 coat protein [nM]
10 | AUAACAUGAGGAUCACCCAUGUAAGCAGAUACCAGCUAGGAAACUAGCCCUUGGCAGCUGCAUAGUGAUCCAUAUAUCUGCUAAU [(M1)-(M2)-(T1)-(T2)-(M)'-(T)'_Design8] | 59.2
11 | UACUUACAUGAGGAUCACCCAUGUGGCGAAGGAGCGGCAUGAGGGCCAGGUAGGUCGCGCCAACAUACAUACAUGAGGAUCUCCC [Same State Arginine A 4] | 93.1
12 | UUGGCAGCAUGGGUGGCUGCCAAGGCUGAUACCAGCCACGAAAGUGGCCCUUGGCAGCAGCAAACAUGAGGAUCACCCAUGUUAA [(T)''-(M)'-(T)'-(Theo)-(Ms2)_Design3] | 93.3
13 | CGUCGAAACUGAAGGAGCGAGAUAACAACAUUGGGUCUCAACAUGAGGAUCACCCAUGUAUCUCAGGUAGGUCGCGGUGUCACCG [Exclusion Arginine B GF19] | 217
14 | CCGUCACAUGAGGAUCACCCAUGUGCGGAAGGAGCGGACGACAGUCCAGGUAGGUCGCCGUAUAGCCAAUGACCAGCAGUGUCGG [Betesotiqu] | 13.9
15 | AUACAUGAGGAUCACCCAUGUUAUAGUGAAGGAGCGACAUUUAUGUCAGGUAGGUCGCACUAUUGUUUAAUGAUUCUUGGAUCUU [JR_ExcArginiA_Sub017] | 18.5
16 | GGGCCCGUAAGCAGGCCCACAGCGGGUGAUACCAGCAAUAAAACUUGCCCUUGGCAGCACACAGCUACAUGAGGAUCACCCAUGU [Mausdi] | 88.6
17 | ACAUGUUGGUGGUACCAACGAAGGCGGAAACGAGGACCGGUACGGCCGCCACUCGGCGACAUGAGGAUCACCCAUGUGGUUAAAA [Exclusion - Tryptophan A (Freestyle 3)] | 70
18 | UGUAUGUGAACUGAUACCAGACCUCAAUCUUGAGGAUCACCCAAGGAGGACGAAAGUCCGGUCCCUUGGCAGCAGUUCACAUACU [ThBS - Unstable 2] | 1390
19 | CGGUCGGUCGGUCGGUGAGUAUGGGAUGAAGGAGCGUGGGAAGCUACAGGUAGGUCGCAUCCGGGACAUGAGGAUCACCCAUGUU [#19 Same State - Arginine A] | 25.1
20 | UUCAGCUAGUCGGCCGCCACUACUUGAGGAUCACCCAGGUAGGUCCACACUGCUUCGGCAGUGAGUAGGACCGGGACUAGCUGAG | 272
21 | UGUAUGGACUGAAGGAGCGCCUCAAAAUAGCUUGAGGAUCACCCAAGUAAGGCGAAAGCCGGGCAGGUAGGUCGCAGUCCAUACU [ArgBX 3] | 14.8
22 | UCGAUGGUAUCUGAUACCAGUAGCGUGCGUUACAUGAGGAUCACCCAUGUGCCUAUACUUUACCCUUGGCAGCAGUGGAUUCGAU [theeternabot_sameState_MS2_Theo_B_22] | 241
23 | UCGUGUGUUUCGGAUACCAGUGAAAUCGAUACAUGAGGAUCACCCAUGUGAGAGGAUGUACACCCUUGGCAGCUGUCUGUAUCUG [asczmullin] | 12.1
24 | UACCGAUGAAGAAGGAGCGAUUUUAUGUUACAUGAGGAUCACCCAUGUGGACUAGGUGAAGAUCAGGUAGGUCGCUUCAUCGGUA [SSAB NP+V+V2 #20] | 24.5
25 | GCUGUAAGUGCAGAUACCAGCAAGUGAGGUUUCAUAUGACAUGAGGAUCACCCAUGUAUCUGCCCUUGGCAGCUGCACUUACAGC [#28 Same State - Theophylline B] | 21.7

Row | Sequence | apparent KD of MS2 coat protein [nM]
26 | AGACAUGAGGAUCACCCAUGUAGUACGGAUACCAGAUCCAGAUGUAUCCCUUGGCAGCUGUGGUACAGCGUUACAUCGCUCGUAG [Exclusion - Theophylline A (Freestyle 21)] | 16.2
27 | GUGUCCUAGUCGGCCGCCACUGGUACGAAUACCUUCACCCGUGUGCACAUGAGGAUCACCCAUGUCAGGACCGGGACUAGGGUGU [SSTryp B #24] | 9.72
28 | GGACUAACCAGAAGGAGCGAUACGCAGAAACUGCAAUUUCCUCUACACGAGGAUCACCCGUGUCAGGUAGGUCGCUGGUUAGUCG | 26.7
29 | GCUACGUGCUGAAGGAGCGUGGACCUAAACAUGAGGAUCACCCAUGUCGUGUAGGCAGAUUCACAGGUAGGUCGCAGCACGUAGC [SSAB NP+V+V2 #14 Same Structure] | 99.7
30 | ACAUGAGGAUCACCCAUGUAGCCUAGGGAAGGAGCGUCGUAAGAGACAGGUAGGUCGCCCGCAUGUGAGUCAUCCAUGACGAGGG [#18 Same State - Arginine A] | 21.1
31 | AUCGUACCUGGUGAUACCAGCAAGUGAUUAUAACAUGAGGAUCACCCAUGUAAUCAGUGAUGCCCUUGGCAGCAUAAUCGGUACA [#24 Same State - Theophylline B] | 26.6
32 | AGAUGUAGCGGAAGGAGCGUCAUGAGGAUCACCCAUGACUCCCGUUGUGGGAGUUCCUUAGGUCAGGUAGGUCGCCGUUACGUCA [Omei Arg B SS B v5] | 426
33 | GCACCAGGUACGGAUACCAGAGCAAGCCAAAUGAGUGACCAUGAGGAUCACCCAUGGUUGCUCCCUUGGCAGCCGUACCUGGUGC [ETB NP+V+V2 #13 Diff Apt, +-Same Structure] | 10.9
34 | UGUAUGUGAUCUGAUACCAGUCCAACUGGUAAAACCUGAGGAUCACCCUGGUAAAAUUGGGACCCUUGGCAGCAGAUCGCAUACU | 560
35 | AACGUAUACAGAAGGAGCGUGAUUUAUAAUUCUUUAAAAUAUACAUGAGGAUCACCCAUGUCACAGGUAGGUCGCUGUAUUCGUA [JR_ExcArginiB_Sub024] | 33.2
36 | ACGCUGAUUGAUUACAAUCAGCGAAAAGAUACCAGUGGGUAAUCCCACCCUUGGCAGCUUAAAUAUGAGGAUCACCCAUAUGGUA [TheoAS 18 #MS2Right #BothOrNeither #AlternativeMS2] | 86.1
37 | CUGGACAUGAGGAUCACCCAUGUAAAUCCUCGAGGACCGGUACGGCCGCCACUCGAACGAGUGGCGCGCGAGUGCGCACUCGCGC [aKa] | 28.3
38 | AAUCAUAGGGCGGCCGCCACUAAACAUGAGGAUCACCCAUGUCUCGAGGGCUUGCGUUUGGGAAGUAGGACCGGGCCAAUAGUAA [Tryp B Ex Mod2] | 16.1
39 | AUUUACAUGGUCAUAUAUAUAUCGUCAGAUACCAGACUAGAUAUUGUCCCUUGGCAGCUGUUACAUGAGGAUCACCCAUGUUAUA [JR_Nu_ExcTheophyA_Sub020] | 178
40 | AGAGCAUUGACGGCCGCCACUCAUGUCACAUGAGGAUCACCCAUGUGAUGGGUAAUCGCCCGGUUGAGGACCGGGUCAAUGCUCA [Omei Tryp SS B v3] | 10.7
41 | UCUUUCUAUGUAGAUACCAGCAUGUUAUAUUUCUAAUGACAUGAGGAUCACCCAUGUAAAUGCCCUUGGCAGCUACAUUUUCUUU [SSTHB #4] | 23.7
